# According to US20030059769, “High affinity nucleic acid ligands to lectins” (published 2003):
# T1: soluble L-selectin (Homo sapiens, UniProt P14151 P14151:39-332)
# T1 sequence: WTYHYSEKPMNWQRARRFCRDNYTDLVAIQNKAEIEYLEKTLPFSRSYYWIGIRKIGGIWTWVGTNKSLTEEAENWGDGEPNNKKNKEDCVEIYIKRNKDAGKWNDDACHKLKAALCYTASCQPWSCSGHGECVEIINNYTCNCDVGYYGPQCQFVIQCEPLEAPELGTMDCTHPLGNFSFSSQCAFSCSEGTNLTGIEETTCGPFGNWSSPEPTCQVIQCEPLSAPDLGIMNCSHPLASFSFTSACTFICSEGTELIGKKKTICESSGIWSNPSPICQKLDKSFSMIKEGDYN
# T2: L-selectin (LS-Rg) (Homo sapiens, UniProt P14151 P14151:39-332)
# T2 sequence: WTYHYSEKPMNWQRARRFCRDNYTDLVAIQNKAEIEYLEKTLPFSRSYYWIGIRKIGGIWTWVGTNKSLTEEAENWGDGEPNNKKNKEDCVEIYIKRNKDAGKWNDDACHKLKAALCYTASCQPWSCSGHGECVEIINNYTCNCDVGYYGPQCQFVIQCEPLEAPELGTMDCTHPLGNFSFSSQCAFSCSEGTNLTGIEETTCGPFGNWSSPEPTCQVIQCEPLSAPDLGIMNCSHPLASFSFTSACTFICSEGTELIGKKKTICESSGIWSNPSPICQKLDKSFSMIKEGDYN
# T3: E-selectin (ES-Rg) (Homo sapiens, UniProt P16581 P16581:22-556)
# T3 sequence: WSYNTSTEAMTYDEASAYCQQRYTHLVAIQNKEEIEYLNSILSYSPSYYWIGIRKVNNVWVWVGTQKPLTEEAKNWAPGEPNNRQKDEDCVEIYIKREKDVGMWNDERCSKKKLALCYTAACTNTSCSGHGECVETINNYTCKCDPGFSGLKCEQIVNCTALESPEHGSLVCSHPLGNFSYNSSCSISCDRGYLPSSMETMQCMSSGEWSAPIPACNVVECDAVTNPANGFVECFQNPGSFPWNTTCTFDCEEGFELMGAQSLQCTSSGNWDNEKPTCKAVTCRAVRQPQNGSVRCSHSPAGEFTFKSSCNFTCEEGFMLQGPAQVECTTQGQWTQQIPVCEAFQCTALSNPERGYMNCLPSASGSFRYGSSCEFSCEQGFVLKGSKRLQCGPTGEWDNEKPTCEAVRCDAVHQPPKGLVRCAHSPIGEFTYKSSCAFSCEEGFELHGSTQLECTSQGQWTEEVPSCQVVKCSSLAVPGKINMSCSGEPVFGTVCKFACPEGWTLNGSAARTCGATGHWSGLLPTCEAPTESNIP
# T4: L-selectin on PBMC / lymphocytes (Homo sapiens, UniProt P14151 P14151:39-372)
# T4 sequence: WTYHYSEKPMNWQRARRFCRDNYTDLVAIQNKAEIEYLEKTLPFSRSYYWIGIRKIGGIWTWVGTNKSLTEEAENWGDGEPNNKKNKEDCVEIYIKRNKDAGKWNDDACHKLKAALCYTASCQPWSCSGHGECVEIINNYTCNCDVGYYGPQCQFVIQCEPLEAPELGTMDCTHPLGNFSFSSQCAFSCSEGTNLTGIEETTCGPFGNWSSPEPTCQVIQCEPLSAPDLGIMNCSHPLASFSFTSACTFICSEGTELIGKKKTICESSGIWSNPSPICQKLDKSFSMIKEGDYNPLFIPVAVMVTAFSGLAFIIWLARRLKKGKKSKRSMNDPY
# Key:
# P-selectin (PS-Rg) [1] = biological target: T5, P-selectin (PS-Rg) (Homo sapiens, UniProt P16109 P16109:42-321); assay: filter; HSMC; SLeX IC50 2 nM; settings: tags: human IgG1 Fc fusion; chain copies: dimer; hairpin
# T5 sequence (P16109 42-321, one chain of several): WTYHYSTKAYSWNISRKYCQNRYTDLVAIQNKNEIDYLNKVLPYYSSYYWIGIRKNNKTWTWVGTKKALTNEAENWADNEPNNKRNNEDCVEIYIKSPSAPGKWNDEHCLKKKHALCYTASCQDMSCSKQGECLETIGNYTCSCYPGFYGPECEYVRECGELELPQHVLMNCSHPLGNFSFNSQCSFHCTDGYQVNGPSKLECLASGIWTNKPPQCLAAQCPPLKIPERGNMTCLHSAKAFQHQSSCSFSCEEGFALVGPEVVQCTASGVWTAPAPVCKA
# [2] = biological target: P-selectin on activated platelets (Homo sapiens, UniProt P16109 P16109:42-830); assay: flow; biotinylated, SA-PE; divalent cation dependent; blocked by G1 antibody; settings: hairpin
# P-selectin on activated platelets, sequence (P16109 42-830, one chain of several): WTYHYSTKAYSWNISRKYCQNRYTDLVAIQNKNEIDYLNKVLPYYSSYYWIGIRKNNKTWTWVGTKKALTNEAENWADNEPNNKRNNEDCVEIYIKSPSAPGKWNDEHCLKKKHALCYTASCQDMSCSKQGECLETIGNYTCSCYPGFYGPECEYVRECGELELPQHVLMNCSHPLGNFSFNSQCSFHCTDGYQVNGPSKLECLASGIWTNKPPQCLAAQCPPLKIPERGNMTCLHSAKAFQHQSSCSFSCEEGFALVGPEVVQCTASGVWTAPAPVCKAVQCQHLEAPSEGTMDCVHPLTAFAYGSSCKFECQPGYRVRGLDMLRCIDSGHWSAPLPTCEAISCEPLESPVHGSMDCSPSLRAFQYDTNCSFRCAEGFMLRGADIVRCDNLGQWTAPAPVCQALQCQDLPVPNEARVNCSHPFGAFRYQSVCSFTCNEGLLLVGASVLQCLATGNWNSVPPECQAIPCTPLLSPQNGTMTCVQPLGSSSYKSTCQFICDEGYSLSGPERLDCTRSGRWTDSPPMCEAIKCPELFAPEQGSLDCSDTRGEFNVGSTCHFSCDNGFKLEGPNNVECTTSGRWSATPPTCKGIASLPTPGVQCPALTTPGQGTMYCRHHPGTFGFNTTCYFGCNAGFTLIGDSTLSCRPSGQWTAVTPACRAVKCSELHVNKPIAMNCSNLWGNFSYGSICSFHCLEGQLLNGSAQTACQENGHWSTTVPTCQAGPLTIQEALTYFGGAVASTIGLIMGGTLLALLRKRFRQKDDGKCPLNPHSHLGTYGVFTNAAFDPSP
# Description: To detect oligonucleotide ligand binding, 15 μl BB+ containing ligand conjugated to either FITC or biotin was incubated 20-30 minutes at 4° C. with 10 μl platelet suspension. The FITC-figand incubations were diluted to 200 μl with BB+ and analyzed on a FACSCaliber flow cytometer. The biotinylated-ligand reactions were incubated with streptavidin-phycoehrin (SA-PE) (Becton Dickinson) for 20 minutes at 4° C., before dilution and analysis. Wash steps with 500 μl BB+ and 700 ×g spins have been used without compromising the quality of the results.
# Since the P-selectin ligands were isolated against purified protein, their ability to bind P-selectin presented in the context of a cell surface was determined in flow cytometry experiments with activated human platelets. Platelets were gated by side scatter and CD61 expression. […] The expression of P-selectin was monitored with anti-CD62P monoclonal antibody (Becton Dickinson).
# soluble L-selectin [3] = biological target: T1, soluble L-selectin; assay: filter; binding undetectable; Table 16 sequence differs from SEQ 358; settings: tags: R&D Systems
# soluble L-selectin [4] = biological target: T1, soluble L-selectin; assay: filter; binding undetectable, 37 C; settings: tags: R&D Systems
# L-selectin (LS-Rg) [5] = biological target: T2, L-selectin (LS-Rg); assay: filter; upper stem and loop only; settings: tags: human IgG2 Fc fusion; chain copies: dimer; hairpin
# Description: (§1) As described in SELEX Patent Applications, a nitrocellulose filter partitioning method was used to determine the affinity of RNA ligands for LS-Rg and for other proteins. Filter discs (nitrocellulose/cellulose acetate mixed matrix, 0.45 μm pore size, Millipore) were placed on a vacuum manifold and washed with 3 ml of SHMCK 140 buffer under vacuum. Reaction mixtures, containing ³²P labeled RNA pools and unlabeled LS-Rg, were incubated in SHMCK 140 for 10-20 min at 37° C., and then immediately washed with 3 ml SHMCK 140. The filters were air-dried and counted in a Beckman LS6500 liquid scintillation counter without fluor. Alternatively, binding studies employed 96 well micro-titer manifolds essentially as described in Example 13, paragraph E.
# Predictions of minimal high affinity sequences for family 1 ligands can be made and serve as a partial test of the postulated secondary structure.
# E-selectin (ES-Rg) [6] = biological target: T3, E-selectin (ES-Rg); assay: filter; specificity control; settings: tags: human IgG1 Fc fusion; chain copies: dimer (inferred); label: 32P
# Description: The affinity of P-selectin ligands to ES-Rg, LS-Rg and CD22β-Rg were determined by nitrocellulose partitioning. […] In general, a ligand's affinity for ES-Rg and LS-Rg is at least 10⁴-fold lower than for PS-Rg. […] The specificity of oligonucleotide ligand binding contrasts sharply with the binding of cognate carbohydrates by the selectins and confirms the proposition that SELEX ligands will have greater specificity than carbohydrate ligands.
# P-selectin (PS-Rg) [7] = biological target: T5, P-selectin (PS-Rg); assay: filter; 37 C, HSMC; settings: tags: human IgG1 Fc fusion; chain copies: dimer; label: 32P
# L-selectin (LS-Rg) [8] = biological target: T2, L-selectin (LS-Rg); assay: filter; 37 C; lacks 7-nt bulge; settings: tags: human IgG2 Fc fusion; chain copies: dimer; label: 32P; hairpin lacking bulge
# Description: as §1
# These calculations assume two ligand binding sites per chimera.
# L-selectin (LS-Rg) [9] = biological target: T2, L-selectin (LS-Rg); assay: inhibition; sialyl-LewisX competition ELISA; settings: tags: human IgG2 Fc fusion; chain copies: 2 (stated dimer)
# Description: SLe^X-BSA (Oxford GlycoSystems, Oxford, UK) in 1X PBS, without CaCl₂, and MgCl₂, (GIBCO/BRL) was immobilized at 100 ng/well onto a microtiter plate by overnight incubation at […]. The wells were blocked for 1 h with the assay buffer consisting of 20 mM HEPES, 111 mM NaCl, 1 mM CaCl₂, 1 mM MgCl₂, 5 mM KCl, 8.9 mM NaOH, final pH 8, and 1% globulin-free BSA (Sigma). The reaction mixtures, incubated for 90 min with orbital shaking, contained 5 nM L-Selectin-Rg, a 1:100 dilution of anti-human IgG-peroxidase conjugate (Sigma), and 0 - 50 ruM of competitor in assay buffer. After incubation, the plate was washed with BSA-free assay buffer to remove unbound chimera-antibody complex and incubated for 25 min with O-phenylenediamine dihydrochloride peroxidase substrate (Sigma) by shaking in the dark at 22°0 C. Absorbance was read at 450 nm on a Bio-Kinetics Reader, Model EL312e (Bio-Tek Instruments, Laguna Hills, Calif.). Values shown represent the mean ±s.e from duplicate, or triplicate, samples from one representative experiment.
# Sialyl Lewis^X is the minimal carbohydrate ligand bound by selecting.
# [10] = biological target: T4, L-selectin on PBMC / lymphocytes; assay: flow; half-saturation on human lymphocytes; divalent cation dependent; settings: label: 32P or 5'-fluorescein (cells); hairpin
# Text: (§2) A variety of monomeric nucleic acid ligands and multivalent Complexes have been examined in flow cytometry.
# [11] = biological target: T4, L-selectin on PBMC / lymphocytes; assay: flow; half-saturation
# Text: as §2
# E-selectin (ES-Rg) [12] = biological target: T3, E-selectin (ES-Rg); assay: filter; specificity control; settings: tags: human IgG1 Fc fusion; chain copies: dimer (inferred); label: 32P; remark: listed apart in the source
# P-selectin (PS-Rg) [13] = biological target: T5, P-selectin (PS-Rg); assay: filter; 37 C; 0.01 nM at 4 C; settings: tags: human IgG1 Fc fusion; chain copies: dimer; label: 32P
# CD22beta (CD22b-Rg) = CD22beta (CD22b-Rg) (UniProt P20273 P20273:20-687); assay: filter; no binding above background; settings: tags: human IgG1 Fc fusion; chain copies: 2 (inferred)
# P-selectin (PS-Rg) [14] = biological target: T5, P-selectin (PS-Rg); assay: inhibition; sialyl-LewisX; settings: tags: human IgG Fc fusion; chain copies: 2 (stated dimer)
# Description: The ability of evolved RNA pools or cloned ligands to inhibit the binding of PS-Rg to sialyl-Lewis^x was tested in competitive ELISA assays (C. Foxall et al., 1992, supra). For these assays, the wells of Corning (25801) 96 well microtiter plates were coated with 100 ng of a sialyl-Lewis^x/BSA conjugate, air dried overnight, washed with 300 μl of PBS(−) and then blocked with 1% BSA in HSMC for 60 min at room temperature. RNA ligands were incubated with PS-Rg in HSMC/1% BSA at room temperature for 15 min. After removal of the blocking solution, 50 μl of PS-Rg (10 nM) or a PS-Rg (10 nM)/RNA ligand mix was added to the coated, blocked wells and incubated at room temperature for 60 minutes. The binding solution was removed, wells were washed with 300 μl of PBS(−) and then probed with HRP conjugated anti-human IgG, at room temperature to quantitate PS-Rg binding. After a 30 minute incubation at room temperature in the dark with OPD peroxidase substrate (Sigma P9187), the extent of PS-Rg binding and percent inhibition was determined from the OD₄₅₀.
# L-selectin (LS-Rg) [15] = biological target: T2, L-selectin (LS-Rg); assay: filter; truncate at base of lower stem; settings: tags: human IgG2 Fc fusion; chain copies: dimer; hairpin
# L-selectin (LS-Rg) [16] = biological target: T2, L-selectin (LS-Rg); assay: filter; room temperature; Table 13 prints 110 nM (probably pM), 380 pM at 37 C; settings: tags: human IgG2 Fc fusion; chain copies: 2 (stated dimer)
# Description: As described in SELEX Patent Applications and in Example 7, paragraph C, a nitrocellulose filter partitioning method was used to determine the affinity of ssDNA ligands for LS-Rg and for other proteins. For these experiments a Gibco BRL 96 well manifold was substituted for the 12 well Millipore manifold used in Example 7 and radioactivity was determined with a Fujix BAS100 phosphorimager. Bindin, data were analyzed as described in Example 7, paragraph C.
binder,measurement,setting,value
"CUCAACGAGCCAGGAACAUCGACGUCAGCAAACGCGAG (ssRNA, 2'-F on all C and U) [PF377s1]",Kd,P-selectin (PS-Rg) [1],0.06 nM
same,EC50,[2],~0.05 nM
"LF1535 (ssRNA, 2'-F C and U) RNA: GGGAGGACGAUGCGGCAAUGUGUUUCUCAAAUUGCUUUCUCCCUUCAGACGACUCGCCCGA",binding result,soluble L-selectin [3],no binding
"LF1816 (ssRNA, 2'-F C and U) RNA: GGGAGGACGAUGCGGUGCUAUUCUUAAGCGGCGUGUAAAUCAAGCUAGAUCAUCGUCAGACGACUCGCCCGA",binding result,soluble L-selectin [4],no binding
"UGCGUGUUUUCAAGCA (ssRNA, 2'-F on all C and U) [LF1514T1]",binding signal,L-selectin (LS-Rg) [5],≥ 100 fold weaker than LF1514
"LF1528 (ssRNA, 2'-F C and U) RNA: GGGAGGACGAUGCGGUUAGGUCAAUGAUCUUAGUUUUCGAUUCGUCAGACGACUCGCCCGA",binding result,soluble L-selectin [4],no binding
"PF377 (ssRNA, 2'-F on all C and U) RNA: GGGAGACAAGAAUAAACGCUCAACGAGCCAGGAACAUCGACGUCAGCAAACGCGAGCGCAACCAGUAACACCUUCGACAGGAGGCUCACAACAGGC",Kd,E-selectin (ES-Rg) [6],2300 nM
same,Kd,P-selectin (PS-Rg) [7],0.0185 nM
"LF1512 (ssRNA, 2'-F on all C and U) RNA: GGGAGGACGAUGCGGCACACGUGUUUUCAAGUGUGCUCCUGGGAUCAGACGACUCGCCCGA",Kd,L-selectin (LS-Rg) [8],315 nM
TAGCCAAGGTAACCAGTACAAGGTGCTAAACGTAATGGCTTCGGCTTAC (ssDNA) [LD201T1],IC50,L-selectin (LS-Rg) [9],~3 nM
same,Kd,[10],3 nM
"TAGCCAAGGTAACCAGTACAAGGTGCTAAACGTAATGGCTTCGGCTTAC (ssDNA, two copies linked 3' ends via five-unit ethylene glycol spacers to 3'-3' symmetric linker) [LD201T1 branched dimer]",EC50,[11]; label: 5' fluorescein,~0.15 nM
"TAGCCAAGGTAACCAGTACAAGGTGCTAAACGTAATGGCTTCGGCTTAC (ssDNA, biotin, multivalent on streptavidin) [bio-LD201T1/streptavidin]",EC50,[11]; label: labeled streptavidin,~0.15 nM
"PA350 (ssRNA, 2'-NH2 on all C and U) RNA: GGGAGACAAGAAUAAACGCUCAAGCCCCAAACGCAAGUGAGCAUCCGCAACAGGGAAGAAGACAGACGAUUGAUUCGACAGGAGGCUCACAACAGGC",Kd,E-selectin (ES-Rg) [12],375 nM
same,Kd,P-selectin (PS-Rg) [13],0.06 nM
"PA350 (ssRNA, 2'-NH2 C and U) RNA: GGGAGACAAGAAUAAACGCUCAAGCCCCAAACGCAAGUGAGCAUCCGCAACAGGGAAGAAGACAGACGAUUGAUUCGACAGGAGGCUCACAACAGGC",binding result,CD22beta (CD22b-Rg),no binding
same,IC50,P-selectin (PS-Rg) [14],2 nM
"GGUACCUCAAAUUGCGUGUUUUCAAGCAGUAUC (ssRNA, 2'-F on all C and U) [LF1514T4]",binding signal,L-selectin (LS-Rg) [15],< 2 fold weaker than LF1514
LD233 (ssDNA) DNA: CTACCTACGATCTGACTAGCCACGACAGAGAACAAGGCGTTAGACGTTATCCGACCACGGCTTACTCTCATGTAGTTCC,Kd,L-selectin (LS-Rg) [16],0.12 nM
